Measured values taken from PMC10269693.

Test system: CN[C@@H]1[C@H](O)[C@H](NC)[C@H]2O[C@@]3(O)C(=O)C[C@@H](C)O[C@H]3O[C@@H]2[C@H]1O
Assay: purified protein
Settings: 5 mM ATP, 10 mM MgCl2, 50 mM HEPES pH 7.5, 37°C

Substance: ANT(9)-Ib (Enterococcus faecalis)
- Km: 33.56 ± 8.1 µM
- kcat: 2.6 ± 0.2 s⁻¹
- kcat/Km: 83000 ± 21000 M⁻¹ s⁻¹
